Data published in patent publication US20100313308.

Experiments:
[1] = target: multiubiquitin chain linked by iso-peptide
[2] = target: his-tagged ubiquitin-extension protein UBQ1
[3] = target: his-tagged polyubiquitin UBQ10 (hexameric polyubiquitin), Q8H159
his-tagged polyubiquitin UBQ10 (hexameric polyubiquitin), Q8H159, sequence (Q8H159 whole entry, looked up): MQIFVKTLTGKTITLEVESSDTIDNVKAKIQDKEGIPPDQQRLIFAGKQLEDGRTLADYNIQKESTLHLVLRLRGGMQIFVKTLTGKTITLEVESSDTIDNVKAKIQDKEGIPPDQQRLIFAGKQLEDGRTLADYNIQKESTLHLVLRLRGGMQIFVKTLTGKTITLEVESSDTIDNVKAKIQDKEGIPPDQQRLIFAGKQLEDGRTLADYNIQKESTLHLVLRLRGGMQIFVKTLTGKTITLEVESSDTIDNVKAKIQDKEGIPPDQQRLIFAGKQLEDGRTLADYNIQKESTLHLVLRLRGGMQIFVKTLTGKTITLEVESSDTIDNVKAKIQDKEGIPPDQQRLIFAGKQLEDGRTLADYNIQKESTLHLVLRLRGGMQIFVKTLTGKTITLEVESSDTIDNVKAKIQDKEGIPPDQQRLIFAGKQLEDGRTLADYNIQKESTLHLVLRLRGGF

B1: GST-UBP15 (protein)
chain: MLEPRGADIPILFLVLVVLPVVAYILLGKWSNISEKRVRANLLAQMAAEEALRAETVVNADRGVRFESVATENRAQRTRTKTVSAGGGAVRAEFDAGARETVAEQRSDSVTATCGVTVVAPVNNNELHVCARCFGPAKTRCSRCKSVRYCSGKCQIIHWRVAHKDECVPVESCSSSSERVSFEKDSVLYDHGMDSTMYSNNTTQAAKGKTSKSSVDFASLGISQNDITPQINTQGRKSVGKQHSSKANRESCRRDSATVFDSSDEAASAGGDNKTSHIKHKSRGNSYAAETNPRRHSVDSSAVQMNGQSFVSGMQESHKHENNLGVRSSFGCPNTQYPSNGTRTATLPRTGINKSGEQSCTETSKKGQVAAVSKTVRSKDTGISEESNGISSTMGIMKMMGLRNSTKHDDRYKNLKMLFPYEEFLKFFQCEVFDLSPRGLVNCGNSCYANAVLQSLTCTKPLVAYLLRRSHSRSCSGKDWCLMCELEQHVMMLRESGGPLSASRILSHMRSINCQIGDGSQEDAHEFLRLLVASMQSICLERLGGETKVDPRLQETTLVQHMFGGRLRSKVKCLRCDHESERYENIMDLTLEIYGWVESLQDALTQFTRPEDLDGENMYRCSRCAGYVRARKELSIHEAPNILTIVLKRFQEGRYGKINKCISFPEMLDMIPFMTRTGDVPPLYMLYAVIVHLDTLNASFSGHYISYVKDLRGNWYRIDDSEIHPVPMTQVMSEGAYMLFYMRSYPRPQRGEHNGKAPVHHSQPRNEMKEQRKPVNRFKPRADHKNTESSSSEWSLFTSSDEASFTTESTRDSFSTIDYTDVCHVVDSSSPFAIFNNVYHNVEPSPHNTVACRMFSGTKPETRYFVEQETNHNNTVVLDATPSLYPIPAPYPPHDYYDQSMYVNYETNPEFNNGQDQDRTYSYW
in vitro DUB activity assay (data not shown) [1]: UBP15 can only cleave a-linked peptide (polyubiquitin and ubiquitin-extension gene) (FIG. 5A), not c-linked isopeptide (multiubiquitin chain linked by iso-peptide) (data not shown) | in vitro DUB activity assay (co-expression in E. coli, immunoblot with anti-ubiquitin antibody) [2]: UBP15 can cleave substrate UBQ1 (ubiquitin-extension protein) | in vitro DUB activity assay (co-expression in E. coli, immunoblot with anti-ubiquitin antibody) [3]: UBP15 can cleave substrate UBQ10 (hexameric polyubiquitin)

B2: GST-UBP15C447A (protein)
chain: MLEPRGADIPILFLVLVVLPVVAYILLGKWSNISEKRVRANLLAQMAAEEALRAETVVNADRGVRFESVATENRAQRTRTKTVSAGGGAVRAEFDAGARETVAEQRSDSVTATCGVTVVAPVNNNELHVCARCFGPAKTRCSRCKSVRYCSGKCQIIHWRVAHKDECVPVESCSSSSERVSFEKDSVLYDHGMDSTMYSNNTTQAAKGKTSKSSVDFASLGISQNDITPQINTQGRKSVGKQHSSKANRESCRRDSATVFDSSDEAASAGGDNKTSHIKHKSRGNSYAAETNPRRHSVDSSAVQMNGQSFVSGMQESHKHENNLGVRSSFGCPNTQYPSNGTRTATLPRTGINKSGEQSCTETSKKGQVAAVSKTVRSKDTGISEESNGISSTMGIMKMMGLRNSTKHDDRYKNLKMLFPYEEFLKFFQCEVFDLSPRGLVNCGNSAYANAVLQSLTCTKPLVAYLLRRSHSRSCSGKDWCLMCELEQHVMMLRESGGPLSASRILSHMRSINCQIGDGSQEDAHEFLRLLVASMQSICLERLGGETKVDPRLQETTLVQHMFGGRLRSKVKCLRCDHESERYENIMDLTLEIYGWVESLQDALTQFTRPEDLDGENMYRCSRCAGYVRARKELSIHEAPNILTIVLKRFQEGRYGKINKCISFPEMLDMIPFMTRTGDVPPLYMLYAVIVHLDTLNASFSGHYISYVKDLRGNWYRIDDSEIHPVPMTQVMSEGAYMLFYMRSYPRPQRGEHNGKAPVHHSQPRNEMKEQRKPVNRFKPRADHKNTESSSSEWSLFTSSDEASFTTESTRDSFSTIDYTDVCHVVDSSSPFAIFNNVYHNVEPSPHNTVACRMFSGTKPETRYFVEQETNHNNTVVLDATPSLYPIPAPYPPHDYYDQSMYVNYETNPEFNNGQDQDRTYSYW
in vitro DUB activity assay (co-expression in E. coli, immunoblot with anti-ubiquitin antibody) [2]: Cysteine^447 is essential for this DUB activity | in vitro DUB activity assay (co-expression in E. coli, immunoblot with anti-ubiquitin antibody) [3]: Cysteine^447 is essential for this DUB activity

B3: GST-UBP15C447S (protein)
chain: MLEPRGADIPILFLVLVVLPVVAYILLGKWSNISEKRVRANLLAQMAAEEALRAETVVNADRGVRFESVATENRAQRTRTKTVSAGGGAVRAEFDAGARETVAEQRSDSVTATCGVTVVAPVNNNELHVCARCFGPAKTRCSRCKSVRYCSGKCQIIHWRVAHKDECVPVESCSSSSERVSFEKDSVLYDHGMDSTMYSNNTTQAAKGKTSKSSVDFASLGISQNDITPQINTQGRKSVGKQHSSKANRESCRRDSATVFDSSDEAASAGGDNKTSHIKHKSRGNSYAAETNPRRHSVDSSAVQMNGQSFVSGMQESHKHENNLGVRSSFGCPNTQYPSNGTRTATLPRTGINKSGEQSCTETSKKGQVAAVSKTVRSKDTGISEESNGISSTMGIMKMMGLRNSTKHDDRYKNLKMLFPYEEFLKFFQCEVFDLSPRGLVNCGNSSYANAVLQSLTCTKPLVAYLLRRSHSRSCSGKDWCLMCELEQHVMMLRESGGPLSASRILSHMRSINCQIGDGSQEDAHEFLRLLVASMQSICLERLGGETKVDPRLQETTLVQHMFGGRLRSKVKCLRCDHESERYENIMDLTLEIYGWVESLQDALTQFTRPEDLDGENMYRCSRCAGYVRARKELSIHEAPNILTIVLKRFQEGRYGKINKCISFPEMLDMIPFMTRTGDVPPLYMLYAVIVHLDTLNASFSGHYISYVKDLRGNWYRIDDSEIHPVPMTQVMSEGAYMLFYMRSYPRPQRGEHNGKAPVHHSQPRNEMKEQRKPVNRFKPRADHKNTESSSSEWSLFTSSDEASFTTESTRDSFSTIDYTDVCHVVDSSSPFAIFNNVYHNVEPSPHNTVACRMFSGTKPETRYFVEQETNHNNTVVLDATPSLYPIPAPYPPHDYYDQSMYVNYETNPEFNNGQDQDRTYSYW
in vitro DUB activity assay (co-expression in E. coli, immunoblot with anti-ubiquitin antibody) [2]: Cysteine^447 is essential for this DUB activity | in vitro DUB activity assay (co-expression in E. coli, immunoblot with anti-ubiquitin antibody) [3]: Cysteine^447 is essential for this DUB activity
